Assay results from patent publication US20180291096A1 (Janssen / Centocor, published 2018).
Positions count from the first letter of the chain named.

B1: MOR04649 mAb (antibody, human IgG1, V domains shown)
VH: QVELVQSGAEVKKPGESLKISCKGSGYSFSNYWIGWVRQMPGKGLEWMGIIDPSNSYTNYSPSFQGQVTISADKSISTAYLQWSSLKASDTAMYYCARWYYKPFDVWGQGTLVTVSS
VL: DIVLTQPPSVSGAPGQRVTISCTGSSSNIGSGYDVHWYQQLPGTAPKLLIYGNSKRPSGVPDRFSGSKSGTSASLAITGLQSEDEADYYCSSWTPSSVVFGGGTKLTVL
B2: MOR05042 mAb (antibody, human IgG1, V domains shown)
VH: B1 VH with D52S, S54T, N55G, Y57S, N59W
VL: B1 VL
B3: MOR05045 mAb (antibody, human IgG1, V domains shown)
VH: B1 VH with D52S, S54T, N55G, Y57A, N59W
VL: B1 VL
B4: MOR05040 mAb (antibody, human IgG1, V domains shown)
VH: QVELVQSGAEVKKPGSSVKVSCKASGGTFSSNYISWVRQAPGQGLEWMGISPGTGINAYYAQKFQGRVTITADESTSTAYMELSSLRSEDTAVYYCARSKKGMYGGWTYPLMMFDLWGQGTLVTVSS
VL: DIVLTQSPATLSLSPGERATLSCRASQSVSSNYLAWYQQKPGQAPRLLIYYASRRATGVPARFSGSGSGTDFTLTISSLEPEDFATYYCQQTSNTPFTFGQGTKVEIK
B5: MOR05058 mAb (antibody, human IgG1, V domains shown)
VH: B1 VH
VL: DIVLTQPPSVSGAPGQRVTISCTGSSSNIGSGYDVHWYQQLPGTAPKLLIYGNSKRPSGVPDRFSGSKSGTSASLAITGLQSEDEADYYCSSWTDTPNMIVFGGGTKLTVL
B6: MOR05041 mAb (antibody, human IgG1, V domains shown)
VH: B1 VH with D52S, S54T, N55G, Y57V, N59W
VL: B1 VL
B7: MOR05054 mAb (antibody, human IgG1, V domains shown)
VH: QVELVESGGGLVQPGGSLRLSCAASGFTFSSFGMSWVRQAPGKGLEWVSGIEHKYLSYATLYAASVKGRFTISRDNSKNTLYLQMNSLRAEDTAVYYCARYWGTPYLMQFDNWGQGTLVTVSS
VL: DIALTQPASVSGSPGQSITISCTGTSSDVGGYNSVSWYQQHPGKAPKLMIYSVSSRPSGVSNRFSGSKSGNTASLTISGLQAEDEADYYCSSYDTNKPLVVFGGGTKLTVL
B8: MOR05053 mAb (antibody, human IgG1, V domains shown)
VH: B7 VH with G50N, L56T, A59T, L61Y
VL: B7 VL
B9: MOR05059 mAb (antibody, human IgG1, V domains shown)
VH: B1 VH
VL: B5 VL with S91A, T96G, P97L, N98S, M99L, I100V
B10: MOR05044 mAb (antibody, human IgG1, V domains shown)
VH: B1 VH with D52S, N55G, Y57T, N59W
VL: B1 VL
B11: MOR05043 mAb (antibody, human IgG1, V domains shown)
VH: B1 VH with I50F, D52S, S54D, N55G, Y57H, N59W
VL: B1 VL
B12: MOR05048 mAb (antibody, human IgG1, V domains shown)
VH: B7 VH with G50N, Y55F, L56M, S57G, A59T, L61Y, S65G
VL: B7 VL
B13: MOR05052 mAb (antibody, human IgG1, V domains shown)
VH: B7 VH with G50S, A59T, L61F
VL: B7 VL
B14: MOR05047 mAb (antibody, human IgG1, V domains shown)
VH: B7 VH with G50N, S57G, L61S
VL: B7 VL
B15: MOR05050 mAb (antibody, human IgG1, V domains shown)
VH: B7 VH with G50S, L56T, S57G, A59T, L61Y, S65P
VL: B7 VL
B16: MOR05038 mAb (antibody, human IgG1, V domains shown)
VH: QVELVQSGAEVKKPGSSVKVSCKASGGTFSSNYISWVRQAPGQGLEWMGINAHLGGTWYAQKFQGRVTITADESTSTAYMELSSLRSEDTAVYYCARSKKGMYGGWTYPLMMFDLWGQGTLVTVSS
VL: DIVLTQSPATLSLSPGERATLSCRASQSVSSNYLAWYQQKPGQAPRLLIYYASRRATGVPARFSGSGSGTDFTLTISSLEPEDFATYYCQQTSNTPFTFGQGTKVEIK
B17: MOR05046 mAb (antibody, human IgG1, V domains shown)
VH: B1 VH with S54V, N55S, Y57W, N59K
VL: B1 VL
B18: MOR05029 mAb (antibody, human IgG1, V domains shown)
VH: B4 VH with I50G, S51I, P52I, G53P, T54I, G55F, I56G, N57H, Y59N
VL: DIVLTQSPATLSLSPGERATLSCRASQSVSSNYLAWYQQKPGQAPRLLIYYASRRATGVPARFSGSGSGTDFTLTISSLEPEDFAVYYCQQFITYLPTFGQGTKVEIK
B19: MOR05030 mAb (antibody, human IgG1, V domains shown)
VH: B4 VH with I50G, S51I, P52I, G53P, T54I, G55F, I56G, N57H, Y59N
VL: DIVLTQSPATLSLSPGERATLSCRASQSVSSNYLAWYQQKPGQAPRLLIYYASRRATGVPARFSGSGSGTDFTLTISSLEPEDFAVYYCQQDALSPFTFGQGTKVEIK
B20: MOR05051 mAb (antibody, human IgG1, V domains shown)
VH: B7 VH with G50Q, A59T
VL: B7 VL
B21: MOR05055 mAb (antibody, human IgG1, V domains shown)
VH: B7 VH with G50N, S57G, L61V
VL: B7 VL
B22: MOR05056 mAb (antibody, human IgG1, V domains shown)
VH: B7 VH with G50S, L61Y, S65G
VL: B7 VL
B23: MOR05028 mAb (antibody, human IgG1, V domains shown)
VH: QVELVQSGAEVKKPGSSVKVSCKASGGTFSNYAISWVRQAPGQGLEWMGGIIPVFGFTHYAQKFQGRVTITADESTSTAYMELSSLRSEDTAVYYCARDIYAGMDVWGQGTLVTVSS
VL: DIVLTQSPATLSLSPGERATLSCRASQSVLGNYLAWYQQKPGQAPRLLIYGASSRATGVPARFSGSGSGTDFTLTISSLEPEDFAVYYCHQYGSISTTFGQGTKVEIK
B24: MOR05039 mAb (antibody, human IgG1, V domains shown)
VH: B7 VH with G50N, S57N, L61Y
VL: B7 VL
B25: MOR05036 mAb (antibody, human IgG1, V domains shown)
VH: B4 VH with I50L, S51I, P52D, G53P, T54V, G55F, I56G, N57G
VL: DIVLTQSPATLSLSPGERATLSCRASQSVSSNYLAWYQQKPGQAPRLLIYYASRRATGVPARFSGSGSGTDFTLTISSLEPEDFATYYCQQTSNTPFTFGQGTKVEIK
B26: MOR05032 mAb (antibody, human IgG1, V domains shown)
VH: B4 VH with I50G, S51I, P52I, G53P, T54I, G55F, I56G, N57H, Y59N
VL: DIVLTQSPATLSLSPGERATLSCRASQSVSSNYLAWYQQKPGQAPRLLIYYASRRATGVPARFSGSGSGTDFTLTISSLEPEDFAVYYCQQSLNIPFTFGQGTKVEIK
B27: MOR05034 mAb (antibody, human IgG1, V domains shown)
VH: B4 VH with I50L, S51I, P52D, G53P, T54N, G55F, I56G, N57G
VL: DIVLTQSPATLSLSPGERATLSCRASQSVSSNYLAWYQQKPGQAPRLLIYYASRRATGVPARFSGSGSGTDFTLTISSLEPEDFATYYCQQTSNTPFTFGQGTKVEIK
B28: MOR05063 mAb (antibody, human IgG1, V domains shown)
VH: QVELVESGGGLVQPGGSLRLSCAASGFTFSSFGMSWVRQAPGKGLEWVSNISSSGSSTYYADSVKGRFTISRDNSKNTLYLQMNSLRAEDTAVYYCARYWGTPYLMQFDNWGQGTLVTVSS
VL: B7 VL with S91G, Y93W, T95P, N96I, K97F, P98S, L99Y, V100E
B29: MOR05062 mAb (antibody, human IgG1, V domains shown)
VH: B28 VH
VL: B7 VL with S91Q, S92T, D94Y, T95F, N96S, K97Y, P98S, L99G, V100P
B30: MOR05031 mAb (antibody, human IgG1, V domains shown)
VH: B4 VH with I50G, S51I, P52I, G53P, T54I, G55F, I56G, N57H, Y59N
VL: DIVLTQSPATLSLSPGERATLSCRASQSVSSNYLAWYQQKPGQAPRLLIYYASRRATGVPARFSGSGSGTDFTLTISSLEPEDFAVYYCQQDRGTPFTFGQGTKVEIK

target: T1, recombinant human IL-23 (hrIL-23), produced at Centocor (human, UniProt P29460 23-328); assay: cell-based or functional assay
T1 sequence 1: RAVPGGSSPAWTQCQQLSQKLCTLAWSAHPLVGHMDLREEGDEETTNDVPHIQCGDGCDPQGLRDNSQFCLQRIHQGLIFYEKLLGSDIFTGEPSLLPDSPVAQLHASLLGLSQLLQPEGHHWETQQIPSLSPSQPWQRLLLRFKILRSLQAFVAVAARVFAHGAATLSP
T1 sequence 2: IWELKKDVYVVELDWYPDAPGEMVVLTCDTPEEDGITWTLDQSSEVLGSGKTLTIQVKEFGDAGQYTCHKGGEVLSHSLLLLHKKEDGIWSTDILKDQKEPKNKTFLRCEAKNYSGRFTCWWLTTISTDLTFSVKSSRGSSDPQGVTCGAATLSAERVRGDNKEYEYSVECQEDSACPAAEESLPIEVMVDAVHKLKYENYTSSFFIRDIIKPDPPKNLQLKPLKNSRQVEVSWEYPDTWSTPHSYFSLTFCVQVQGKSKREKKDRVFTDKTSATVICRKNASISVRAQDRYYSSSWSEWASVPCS

**Q.** Which “IC50, inhibition of IL-17 production” value does the source give for B1 here?
**A.** The value was 0.276 µg/mL.

**Q.** Which “IC50, inhibition of IL-17 production” value does the source give for B2 here?
**A.** The value was 0.00127 µg/mL.

**Q.** Which “IC50, inhibition of IL-17 production” value does the source give for B3 here?
**A.** Its value is 0.0014 µg/mL.

**Q.** For B4, which “IC50, inhibition of IL-17 production” value is on record?
**A.** The value was 0.00264 µg/mL.

**Q.** With B5 as the binder, how does the “IC50, inhibition of IL-17 production” value read?
**A.** The value was 0.00285 µg/mL.

**Q.** For B6, which “IC50, inhibition of IL-17 production” value is on record?
**A.** The value was 0.00301 µg/mL.

**Q.** How did the “IC50, inhibition of IL-17 production” value turn out when B7 was run?
**A.** Its value is 0.00323 µg/mL.

**Q.** With B8 as the binder, how does the “IC50, inhibition of IL-17 production” value read?
**A.** The value was 0.00493 µg/mL.

**Q.** How did the “IC50, inhibition of IL-17 production” value turn out when B9 was run?
**A.** The value was 0.0106 µg/mL.

**Q.** How did the “IC50, inhibition of IL-17 production” value turn out when B10 was run?
**A.** Its value is 0.0141 µg/mL.

**Q.** With B11 as the binder, how does the “IC50, inhibition of IL-17 production” value read?
**A.** The value was 0.0144 µg/mL.

**Q.** For B12, which “IC50, inhibition of IL-17 production” value is on record?
**A.** The value was 0.0162 µg/mL.

**Q.** With B13 as the binder, how does the “IC50, inhibition of IL-17 production” value read?
**A.** The value was 0.0178 µg/mL.

**Q.** With B14 as the binder, how does the “IC50, inhibition of IL-17 production” value read?
**A.** The value was 0.0234 µg/mL.

**Q.** How did the “IC50, inhibition of IL-17 production” value turn out when B15 was run?
**A.** Its value is 0.0277 µg/mL.

**Q.** With B16 as the binder, how does the “IC50, inhibition of IL-17 production” value read?
**A.** Its value is 0.0282 µg/mL.

**Q.** How did the “IC50, inhibition of IL-17 production” value turn out when B17 was run?
**A.** The value was 0.0428 µg/mL.

**Q.** Which “IC50, inhibition of IL-17 production” value does the source give for B18 here?
**A.** Its value is 0.0491 µg/mL.

**Q.** For B19, which “IC50, inhibition of IL-17 production” value is on record?
**A.** Its value is 0.0646 µg/mL.

**Q.** Which “IC50, inhibition of IL-17 production” value does the source give for B20 here?
**A.** The value was 0.0663 µg/mL.

**Q.** How did the “IC50, inhibition of IL-17 production” value turn out when B21 was run?
**A.** Its value is 0.0916 µg/mL.

**Q.** With B22 as the binder, how does the “IC50, inhibition of IL-17 production” value read?
**A.** Its value is 0.092 µg/mL.

**Q.** Which “IC50, inhibition of IL-17 production” value does the source give for B23 here?
**A.** The value was 0.104 µg/mL.

**Q.** For B24, which “IC50, inhibition of IL-17 production” value is on record?
**A.** Its value is 0.161 µg/mL.

**Q.** For B25, which “IC50, inhibition of IL-17 production” value is on record?
**A.** Its value is 0.17 µg/mL.

**Q.** Which “IC50, inhibition of IL-17 production” value does the source give for B26 here?
**A.** The value was 0.172 µg/mL.

**Q.** With B27 as the binder, how does the “IC50, inhibition of IL-17 production” value read?
**A.** The value was 0.185 µg/mL.

**Q.** Which “IC50, inhibition of IL-17 production” value does the source give for B28 here?
**A.** The value was 0.198 µg/mL.

**Q.** For B29, which “IC50, inhibition of IL-17 production” value is on record?
**A.** Its value is 0.199 µg/mL.

**Q.** How did the “IC50, inhibition of IL-17 production” value turn out when B30 was run?
**A.** Its value is 0.215 µg/mL.
